Experimental data from patent US12104181 (University of Texas, dated 2024).

Biological target: T1, TRIM7-3F (TRIM7 with C-terminal 3×FLAG epitope) (human, UniProt Q9C029 1-511)
T1 construct: also called WT TRIM7-3F; 3×Flag-tagged TRIM7
Test: co-IP with anti-HA beads from co-transfected 293T cells, Western blot

B1: HA-tagged MenV 2BC (other)
chain: PFTFKPRQRPVFQTQGAAVSSMAQTLLPNDLASKAMGSAFTALLDANEDAQKAMKIIKTLSSLSDAWENVKGTLNNPEFWKQLLSRCVQLIAGMTIAVMHPDPLTLLCLGVLTAAEITSQTSLCEEIAAKFKTIFTTPPPRFPVISLFQQQSPLKQVNDVFSLAKNLDWAVKTVEKVVDWFGTWVAQEEREQTLDQLLQRFPEHAKRISDLRNGMAAYVECKESFDFFEKLYNQAVKEKRTGIAAVCEKFRQKHDHATARCEPVVIVLRGDAGQGKSLSSQIIAQAVSKTIFGRQSVYSLPPDSDFFDGYENQFAAIMDDLGQNPDGSDFTTFCQMVSTTNLLPNMASLERKGTPFTSQLVVATTNLPEFRPVTIAHYPAVERRITFDYSVSAGPVCSKTEAGCKVLDVERAFRPTGDAPLPCFQNNCLFLEKAGLQFRDNRSKEILSLVDVIERAVTRIERKKKVLTAVQTLVAQ
notes: domain: 2BC
binding result: no binding
